This series is described as follows: soluble on expression in E. coli; label from the status in PepcDB or PDB records.
As to “MFGLRTRNQEAESEYRRFIKGLSDSMAMIEFDTRGIILNANDLFLSCVGYTREAIVGKHHSIFCDRGYVQSPRYQQFWDDLKMGKHKRGTFERLTSQRERLVLEASYFPIESEHGQIEKVVKIASDVTQQRLESEQKEAILNALDLSLATIEFDREGYILTANQNFLKTLGYELSDVQGKHHKLFCFDDFYQENPGFWKDLAAGQFKSGQFLRRSASGDKVYIEATYNPIFDPAGNVIKVVKFASDITDKVQRDLNISQAIADSSFIARNASEEATSNVCGAEHSLNEFRTMIEEVLRAVTACDDK”, the “soluble on expression in E. coli” value was “not soluble”. Consider “MGSDKIHHHHHHLSIARETGSILLIPSTTTLRRAFDFETTFNDSIQFVGEDLSRQLAEDLNASKITLTSCCAYRNLSTILFNDSRIIERIDGYFQNFRYFHPDSQKIVKKLFTFMDPVRKRVSFWNIIYWNIHPTNHRKKPEKSTVSIFSFVTFQLRVDEFLENVGISLTVRNARVIETNVANDDQALELPEEDAFAKTMMVGVHIRHGMDISMNSRNRIHGHVDTPIEYYKRAIQQISKIYENVAFIICSDNVAWARRNLKLGKETLHFFCPGPREVDMAILKSCDSVIISTGTFGWWSAYLNVNASPDVYYYKHWPAPGSVMEKMTNKTEYF”, for which the “soluble on expression in E. coli” value is “not soluble”. Next, “MTVYNRTKQKTEDLVTEGAQAADTPRLAAKSADIVITMLADDDSVSTVTFGEDGLLEGLAENGIHISMSTISVEFSEKLAAAHAEKGQFFLAAPVLGRPDAAAKAALRIITAGPAEAKQAAKPLLDSLSQQIFDVGEESKTANAAKISINFLLVSMLEALSESFLMMEKYGLEQKQFLEIASALFGSPVYQNYGTIMAEQKFEPAGFKMSLGLKDTNLALAAAKRVSANLPLAELAKSHFESGIEKGFGDLDWAALIKCIK”: “not soluble”. In the case of “MTDAGSSFCPECGDPVDSVGGDGATRREQSLCDSCYFAAFDLVDAPDTIEVMVCARCGAVHRGNRWVDIGADDYVDVAVAETTEALGVHLEAEDVDWEVRPEKLDDNTVRMHATFTGVVRDTHRTEQVAVTVKVSRQTCQRCGRIAGESYASTVQVRAVGRDPTSEETDRAAELAHRIVADMEATGDREAFVTEIGDAESGTDIKLSTTKIGLKLARKLVEEFGGDFEDHETLITEDDDGNEVYRVTYAVRLPEFVPGDVVDIAADDGGPVLVQSNHGNLKGVRVTTGEPYEASFEDGDSPDARKLGAVADATEATVVTVEDDAAIQILDPDTYEAQTVARPDYVDPDASTVPALKSRAGLHVLPDALEHHHHHH”, the “soluble on expression in E. coli” value was “soluble”. As for “MALIGRQTTIQMIDLEPELPTQKDYQSDILRELTQIRNENLEYNRLEVYVLELEQIMRIRMIVDLLDLGGRLNSETLLQMCYRLVNQETDLENLRNFRDSQFAQEEQRRDRLREIGQRIFNRFEQQQEEAAGNREGSEAGERPSKENIEFRIWRFLSVLQHQDGLERLDELEREIAVRREMNAADQFQEGQDFFARINPDIVAEGIPHHNNRDNIPIERQYRTEFIQLANDLQSPPDDVRLDVFRRLIDLGVQFQESRLEQDRQRIQEEPQRQREGEIMDQLNDSVKGDMRRLNPMAPGNASGNIQQEGAGIETDVDVDDELEDEYSGSDSSQDVEEVPEESSERYVADTGSATNQPSSSTSEPNAGNEEVEDPSQRTRKRGNGSELSDAKRTN”, the “soluble on expression in E. coli” value is recorded as “soluble”. Next, “MGSDKIHHHHHHMSASIPETMKAVVIENGKAVVKQDIPIPELEEGFVLIKTVAVAGNPTDWKHIDFKIGPQGALLGCDAAGQIVKLGPNVDAARFAIGDYIYGVIHGASVRFPSNGAFAEYSAISSETAYKPAREFRLCGKDKLPEGPVKSLEGAVSLPVSLTTAGMILTHSFGLDMTWKPSKAQRDQPILFWGGATAVGQMLIQLAKKLNGFSKIIVVASRKHEKLLKEYGADELFDYHDADVIEQIKKKYNNIPYLVDCVSNTETIQQVYKCAADDLDATVVQLTVLTEKDIKEEDRRQNVSIEGTLLYLIGGNDVPFGTFTLPADPEYKEAAIKFIKFINPKINDGEIHHIPVKVYKNGLDDIPQL”: “not soluble”; “TNHHQRALSYLQYGLDQGEGFIVITGPIGTGKTTIARNLLANIADENIVAAQLVTTKLTPNELLDLVAAEFKITVTGNSKADVLQSIEKFLINLNKQGKRALLLVDEAQNLPVETVEELRMLSNFQLDNKPLIQSFLLGQEELKAIISAPDMEQFRQRIIASAHLKP”: “not soluble”. Next, “MGSDKIHHHHHHMSELITTGVDIGSGCIKTVVFKVNGDKVEWLGKETSRIRNRDPFQLTTETYNHMLKSAGVDAKDVAYVASTGDAENLSFATGHFYSMTTHGRGGLYLNPEARAVLDIGALNGRAIRMDGVGKVLSYKMTSQCASGSGQFLENIARYLGIAQDEIGSLSMKADDPEKVSSICAVLAETDVINMVSRGISASNILKGIHVSMAVRLAKLLKSIGAVDGIVQVTGGLALDTGLVAALNEAAEQEKVNLKAVSHPDSIYAGAIGAALWGAFRHEKLARLGQAA”: “not soluble”; “MDAYPEAEAPPQSIVELVPVLIAVTDGGLRVLTVAQGMLLPNGPLSPLRNSLQAGVKLWVAKQTSQPMGYVEQLYTFVDTHRRNEHGMPVLYVSYLGLVREAADSILHPDAKWQDCYGYFPWEDLRTDGGQRDAVVGRLRIWANSADTEEVRQKRLKRIHLCWGVEPENWSEEYVLQRYEMLYESGLIAEAAEPQANFDFALTGQPMRHDHRRVLATALSRLRAKIKYRPVIFELMPPEFTLLQLQNSVEAISGRLLHKQNFRRQIQQQNLIEPSDTGVSGSKGRPAQLCRFRDDVLPDRLISDIGLPLGSR”: “not soluble”. As for “MEIRKKLVDPSKYCIKCPYTMNPEFITVHNTYNDATAENEVAYMIRNDNQVSFHIAVDDKEAVQGIPLERNAWHTGDGNGNGNRKSIGVEICYSLSGGDRYYKAEDNAAIVVAQLMKQYNIPIKKVRTHQSWSGKYCPHRMLAEGRWNNFIERVQNAYNGDGKVTPTLIPPSTNGTGIAYIEGNGINLRKGLGTGYGVIRQLGKGESYEVWGQSNGWLNLGGNQWIYNDSSYIRYTGESTPTSSQSVNNGVGIVTITADVLRVRKGPGTNYDIVKNVYQGEQYQSWGYRDGWYNVGGDQWVSGEYVKFED”, the “soluble on expression in E. coli” value is recorded as “not soluble”. The value for “MGSDKIHHHHHHMSSILRLDRLRQFIGELATLLDSRPDESTLLAQAHPLLAELVHQDDWLPEDCARPDPQRYQQYLLHVDSRQRFSVVSFVWGPGQITPVHDHRVWGLIGMLRGAEYSQPYAFDAGGRPHPSGARRRLEPGEVEALSPRIGDVHQVSNAFSDRTSISIHVYGANIGAVRRAVFSAEGEEKPFISGYSNSRLPNIWDLSKENPA” was “not soluble”. For “SAHSAAAVPLGALEQGCPIRVEHDRRRRQFTVRLNGCHDRAVLLYEYVGKRIVDLQHTEVPDAYSGRGIAKHLAKAALDFVVEEDLKAHLTCWYIQKYVKENPLPQYLERLQP”, the “soluble on expression in E. coli” value is reported as “soluble”. For “MSLNKKVVIDDVAKLAGVSKATISRYLNGKFEYMSEKTKDRIKESIEELNYRPNNIARSLKSNKSKLIGVVIADLTNPFSSIIIKGIGDECKARGYNMVIANSDNDVKQEEEYIKSLLDQRVEGIIVNSTGYNEEFLLSIKERGIPVSMVDRTFCEDKVDSVKSNNYDITVETINYLIDAGFNSLCFFTERLDNIKPRIERERAFIDVCSKRLKKENYNISVVDYSKAGNLEVNIYKFLNNYSGKKAIFAVNGVVLLHTLSAINKLNINVPKDLGICGYDNWGWAALIPPGITTISQPSYEMGSEAAKLVLDRIEGKASLGAVCKTLSAKLEIRGSTIPLNEGHHHHHH”, the “soluble on expression in E. coli” value is given as “not soluble”. For the sequence “TQQPIVTGTSVISMKYDNGVIIAADNLGSYGSLLRFNGVERLIPVGDNTVVGISGDISDMQHIERLLKDLVTENAYDNPLADAEEALEPSYIFEYLATVMYQRRSKMNPLWNAIIVAGVQSNGDQFLRYVNLLGVTYSSPTLATGFGAHMANPLLRKVVDRESDIPKTTVQVAEEAIVNAMRVLYYRDARSSRNFSLAIIDKNTGLTFKKNLQVENMKWDFAKDIKGYGTQKI”, the “soluble on expression in E. coli” value is “soluble”. The value for “MGSDKIHHHHHHMPRNLPPLYALRAFEAAARHTSFTRAAEELSITQSAVSRHIRTLEEHFACRLFQRNGRNLQLTESARTLLPGVRDGFLALERACSTLQTDEGVLRMKAPSTLTMRWLLARLSRFRHLQVGNEVQLTSAWMDIDAVDFTREPFDCAILLSQGHFPSDWEATLLFAELLIPVGAPTLSQDPPWDVERLAKAELLHPTPDRRDWRTWLNRMGLADQVSLKGGQVFDTLELGMIAAARGYGVSMGDLLMVAEDLAQSRLSLPWRTAVFSGENYYLVWPRTRPGAERLRRLSDFLQAEVKAMKLPLVEVLR” was “not soluble”; that for “MHHPPVEELELIDSPAALEWAREWSQATQERWSNDALQRSIREALDTDARIPYVTRRGEYLYNFWRDRDHPRGVWRRTTLESFTSDSPQWQVLIDVDRLAASEEESWVWKGAHVRPHHFDRALIRLSRGGADAVEIREFDLDSGSFVEDHAFAVPEAKTQVCWVDRDTVLVGTDMGAGSLTESGYPARVHVWRRGTNLAEAEEFFCGLSSDLAVSAWAETVPGFERLFVRRALDFYRSRTFIQRDGHLQIIEVPEDCTVVVHREWMYVLPREEYAGIASGGVGAILFEDF” was “not soluble”; that for “ETVQVNLPVSLEDLFVGKKKSFKIGRKGPHGASEKTQIDIQLKPGWKAGTKITYKNQGDYNPQTGRRKTLQFVIQEKSHPNFKRDGDDLIYTLPLSFKESLLGFSKTIQTIDGRTLPLSRVQPVQPSQTSTYPGQGMPTPKNPSQRGNLIVKYKVDYPISLNDAQKRAIDENF” was “soluble”.

“MGSDKIHHHHHHMAEDQTVLAIDIGGSHVKIGLSTDGEERKVESGKTMTGPEMVAAVTAMAKDMTYDVIAMGYPGPVVHNKPLREPVNLGEGWVGYDYEGAFGRPVRIVNDALMQAIGSYNGGRMLFLGLGTGLGAAMIVENVAQPMEIAHLPYRKGKTYEHYVSEAYREKKGNAKWQKRVQDVVERLSAALEPDEVVIGGGNVERLENLPPKCRRGDNAMAFEGGFRLWKNADLIV”: the “soluble on expression in E. coli” value is “not soluble”. On to “MRNIAEAYFQNMVETATPLEQIILLYDKAIECLERAIEIYDQVNELEKRKEFVENIDRVYDIISALKSFLDHEKGKEIAKNLDTIYTIILNTLVKVDKTKEELQKILEILKDLREAWEEVKKKVHHHHHH”, for which the “soluble on expression in E. coli” value was “soluble”.

On to “MKLIKNGKVLQNGELQQADILIDGKVIKQIAPAIEPSNGVDIIDAKGHFVSPGFVDVHVHLREPGGEYKETIETGTKAAARGGFTTVCPMPNTRPVPDSVEHFEALQKLIDDNAQVRVLPYASITTRQLGKELVDFPALVKEGAFAFTDDGVGVQTASMMYEGMIEAAKVNKAIVAHCEDNSLIYGGAMHEGKRSKELGIPGIPNICESVQIARDVLLAEAAGCHYHVCHVSTKESVRVIRDAKRAGIHVTAEVTPHHLLLTEDDIPGNNAIYKMNPPLRSTEDREALLEGLLDGTIDCIATDHAPHARDEKAQPMEKAPFGIVGSETAFPLLYTHFVKNGDWTLQQLVDYLTIKPCETFNLEYGTLKENGYADLTIIDLDSEQEIKGEDFLSKADNTPFIGYKVYGNPILTMVEGEVKFEGDK”, for which the “soluble on expression in E. coli” value is reported as “not soluble”. The value for “ASHHLRMHFKTLPAGESLGSLGLWVWGDVDQPSKDWPNGAITMTKAKKDDYGYYLDVPLAAKHRQQVSYLINNKAGENLSKDQHISLLTPKMNEVWIDENYHAHAYRPLKEGYLRINYHNQSGHYDNLAVWTFKDVKTPTTDWPNGLDLSHKGHYGAYVDVPLKEGANEIGFLILDKSKTGDAIKVQPKDYLFKELDNHTQVFVKDTDPKVYNNPYYID” was “soluble”; that for “MPLSDADYNDPDNEEVAFLSRGLLEACIEFIRETPAGDALRIVAYEFTFKRILLELKAALERGVDVRIVYHATTANEKAIADAKLPENSKGVQILFKRTRPQTPHNKFIVRLKKGKTPVSVWTGSTNFTPSGFLGQTNVGHKVTDGDIAKIYLQLWEGLKADPDDFDATQAAMALTPLEHHHHHH” was “soluble”.

Values taken from the DeepSol protein solubility set.
